Assay results from patent publication US8173771B2, “Humanin receptor or humanin-like polypeptide receptor” (Keio Univeristy, priority 2005, dated 2012).

Experiments:
[1] = tested on: primary cortical neurons (PCNs); experiment: Aβ neurotoxicity in primary cortical neurons, WST-8 / Calcein / LDH; assay type: cell-based, mouse
Procedure: B) PCNs were incubated with 25 μM Aβ (upper) in the presence of 10 μg of recombinant soluble human gp130 (lower “+”) or BSA (lower “−”). Cell viability was determined by WST-8 assay (upper) or Calcein fluorescence assay (lower) at 72 hr after the onset of treatment with Aβ.
C) PCNs were incubated with 25 μM Aβ (1-43) in the presence of 1 μg of neutralizing anti-mouse gp130 antibody (RX435) or control IgG. Cell viability and cell mortality were determined by Calcein fluorescence (left panel) and LDH assays (right panel), respectively, at 72 hr after the onset of treatment with Aβ (1-43).
[…] At 72 hr after incubation, the cells were harvested for WST-8 assays or/and Calcein fluorescence assays to show cell viability.
B) The soluble IL-6 receptor-α (sIL-6R) or the soluble CNTF-R (100 ng/ml) were added to the cells as in the above A), followed by the stimulation with its ligand, IL-6 or CNTF (100 ng/ml), respectively to show the effects on the neuronal cell death due to Aβ. The right and left graphs show the cell viabilities determined by WST-8 assays and Calcein fluorescence assays, respectively.
C) The neutralizing antibodies (1 μg) for the mouse gp130, mouse LIFR, mouse IL-11R and rat CNTF-R were added as in the above A), and cell viability was determined by Calcein fluorescence assays after 72 hours.
WST-8 assay was performed at 72 hrs after the treatment.
The primary culture of mouse cortical neurons was prepared as described previously (Sudo et al., 2000). Briefly, primary cortical neurons, obtained from embryonic day 14 (E14) ICR mice were seeded in poly-L-lysine-coated 96 well plates (Sumitomo Bakelite) at 2.5 or 5.0×10^4 cells/well in Neuron Medium (Sumitomo Bakelite) (Hashimoto et al., 2003; Niikura et al., 2004). Purity of neurons by this method was >98%. After 3 days, the culture medium was replaced with DMEM with N2 supplement. On the fourth day in vitro, 25 μM of Aβ (1-42) was added in association with indicated concentrations of HN or cytokines in the presence or the absence of soluble cytokine receptors or neutralizing antibodies. At 72 hrs after the onset of treatment, cell viability was assessed by WST-8 assay and/or Calcein fluorescence assay and cell mortality was assessed by the Trypan blue exclusion assay and LDH assay (Hashimoto et al, 2000, 2001 a b, 2003).

[2] = biological target: T1, PCN cells (Mus musculus, UniProt O70394+O88507); experiment: Immunofluorescence-based binding assay (2) on PCN, competition with unlabeled cytokines; conditions: similar range as IL-27; 10 nM biotin-HNG
T1 construct: endogenous in cells; host or cells: mouse primary cortical neurons (PCN), E14 ICR mice
T1 sequence (O70394 25-623): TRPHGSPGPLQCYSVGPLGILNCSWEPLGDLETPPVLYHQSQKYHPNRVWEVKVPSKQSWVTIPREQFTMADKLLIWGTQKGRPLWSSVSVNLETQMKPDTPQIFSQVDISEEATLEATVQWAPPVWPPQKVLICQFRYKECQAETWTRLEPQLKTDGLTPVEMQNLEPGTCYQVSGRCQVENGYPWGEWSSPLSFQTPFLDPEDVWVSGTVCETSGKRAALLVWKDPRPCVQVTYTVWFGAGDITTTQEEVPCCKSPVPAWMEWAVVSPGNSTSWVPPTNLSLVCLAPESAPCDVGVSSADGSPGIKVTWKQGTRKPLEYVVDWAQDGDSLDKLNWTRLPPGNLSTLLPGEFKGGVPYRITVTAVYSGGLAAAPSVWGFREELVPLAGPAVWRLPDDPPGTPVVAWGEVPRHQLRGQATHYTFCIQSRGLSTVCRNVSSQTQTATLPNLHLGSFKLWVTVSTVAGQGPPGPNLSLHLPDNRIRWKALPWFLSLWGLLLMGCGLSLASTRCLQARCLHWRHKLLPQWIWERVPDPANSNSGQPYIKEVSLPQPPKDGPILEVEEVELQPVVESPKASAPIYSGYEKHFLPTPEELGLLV
T1 sequence (O88507 23-342 limits assumed): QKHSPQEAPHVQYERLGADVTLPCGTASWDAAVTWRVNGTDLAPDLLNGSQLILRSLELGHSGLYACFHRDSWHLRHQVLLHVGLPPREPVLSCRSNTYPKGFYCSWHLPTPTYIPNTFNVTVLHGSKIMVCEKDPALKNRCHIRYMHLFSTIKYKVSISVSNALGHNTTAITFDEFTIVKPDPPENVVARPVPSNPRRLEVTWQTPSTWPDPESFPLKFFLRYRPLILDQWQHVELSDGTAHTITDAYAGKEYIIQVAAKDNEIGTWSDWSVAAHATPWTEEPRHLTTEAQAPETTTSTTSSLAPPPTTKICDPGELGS
T1 sequence (Q00560 23-917 partner): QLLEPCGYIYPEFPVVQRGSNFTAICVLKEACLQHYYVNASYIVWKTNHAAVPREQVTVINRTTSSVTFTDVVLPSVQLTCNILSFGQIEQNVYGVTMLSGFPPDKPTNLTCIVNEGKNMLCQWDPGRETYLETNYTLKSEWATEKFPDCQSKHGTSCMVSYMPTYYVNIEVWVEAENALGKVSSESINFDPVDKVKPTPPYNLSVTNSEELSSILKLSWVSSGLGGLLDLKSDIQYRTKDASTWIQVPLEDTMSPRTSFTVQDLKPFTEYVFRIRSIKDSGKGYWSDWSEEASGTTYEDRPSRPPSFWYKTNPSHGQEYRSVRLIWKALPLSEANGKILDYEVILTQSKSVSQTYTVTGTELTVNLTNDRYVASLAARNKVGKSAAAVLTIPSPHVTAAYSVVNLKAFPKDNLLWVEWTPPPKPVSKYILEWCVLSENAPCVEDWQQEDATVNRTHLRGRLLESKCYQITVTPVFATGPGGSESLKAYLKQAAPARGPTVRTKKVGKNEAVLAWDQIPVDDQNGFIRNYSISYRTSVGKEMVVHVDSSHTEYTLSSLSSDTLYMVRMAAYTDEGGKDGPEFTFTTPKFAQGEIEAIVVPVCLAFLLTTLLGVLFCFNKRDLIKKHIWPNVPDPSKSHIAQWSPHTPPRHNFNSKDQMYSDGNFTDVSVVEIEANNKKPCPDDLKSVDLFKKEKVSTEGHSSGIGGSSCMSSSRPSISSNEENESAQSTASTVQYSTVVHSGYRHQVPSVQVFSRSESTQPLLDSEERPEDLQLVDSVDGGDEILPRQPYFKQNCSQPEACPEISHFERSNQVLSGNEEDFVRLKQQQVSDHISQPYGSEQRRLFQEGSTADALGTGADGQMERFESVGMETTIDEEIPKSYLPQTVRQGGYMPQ
Procedure: After 6 hrs incubation, they were fixed with 4% paraformaldehyde in PBS for 30 min. After washing with PBS, cells were stained with FITC-conjugated avidin (Molecularprobe, Eugene, Oreg., USA). Immunofluorescence intensity was measured (excitation=485 nm, emission=535 nm) with a spectrofluorometer (Wallac1420 ARVOsx Multi Label Counter). Immunohistochemical analysis was done with a laser-scanning, confocal microscope LSM (Carl Zeiss, Germany).

inhibition of the binding of HN to PCN [2]: did not show such effect
B1: IL-6: interleukin-6, recombinant cytokine (protein, UniProt P20607 25-211, looked up)
Interleukin-6: FPTSQVRRGDFTEDTTHNRPVYTTSQVGGLITYVLREILEMRKELCNGNSDCMNSDDALSENNLKLPEIQRNDGCFQTGYNQEICLLKICSGLLEFRFYLEFVKNNLQDNKKDKARVIQSNTETLVHIFKQEIKDSYKIVLPTPTSNALLMEKLESQKEWLRTKTIQLILKALEEFLKVTMRSTRQT
mimicry of HN in neuroprotection against neuronal cell death by Aβ ([1]; cytokine 100 ng/ml with its soluble receptor (sIL-6R or soluble CNTF receptor) 100 ng/ml): completely mimicked HN | inhibition of neurotoxicity by Aβ ([1]; cytokine alone, physiological levels (up to 100 ng/ml), 25 μM Aβ): did not inhibit
